Source: patent US20030124108A1

Target: purified PLD1 (isoform not distinguished in Example 4) (human)
Assay: cell-based or functional assay

Row | Substance | activation of PLD1 at a maximally effective concentration (ARF1 4.7 M as printed) [fold] | half-maximal activation of PLD1 activity (headgroup release assay) [M] | stimulation of PLD1 activity [fold] | activation of PLD1 at a maximally effective concentration (PMA-activated PKC- 0.043 M as printed) [fold] | activation of PLD1 at a maximally effective concentration (cdc42 5.5 M as printed) [fold] | activation of PLD1 at a maximally effective concentration (RhoA 3.8 M as printed) [fold]
1 | human ADP-ribosylation factor 1 (ARF1) (from UniProt P84077 2-181) | 49 | 0.2 | 50 |  |  | 
2 | human protein kinase C- (isoform letter lost in print) (from UniProt P17252 2-672) (enzyme) |  |  |  | 28 |  | 
3 | human cdc42 with … at the amino terminus (from UniProt P60953 1-188) |  | 1 | 5 |  | 10 | 
4 | human RhoA with … at the amino terminus (from UniProt P61586 1-190) |  | 1 | 10 |  |  | 13
